Laboratory results: the Human Domainome abundance scans (Beltran et al. 2025)
± gives the uncertainty stated by the source.

B1: FERM and PDZ domain-containing protein 4, residues 75 to 154; numbered along this chain, Q14CM0 (parent)
chain: APRKVEMRRDPVLGFGFVAGSEKPVVVRSVTPGGPSEGKLIPGDQIVMINDEPVSAAPRERVIDLVRSCKESILLTVIQP

Variants of: B1
Assay: abundance fitness (aPCA) (normalised: wild type 0, dead -1); higher = more abundant; growth selection in yeast, the domain comes from the species named
Details: Homo sapiens
With Q79S the abundance fitness was 0.022 ± 0.022. Q79A gave an abundance fitness of 0.035 ± 0.022. Variant Q79F has an abundance fitness of -0.262 ± 0.034. Work on Q79R yielded an abundance fitness of 0.074 ± 0.018. For Q79P, the abundance fitness was -0.019 ± 0.03. In the case of Q79K, the abundance fitness is reported as -0.029 ± 0.027. With Q79C the abundance fitness was 0.012 ± 0.028. With Q79E the abundance fitness was -0.017 ± 0.024. Q79H showed an abundance fitness of -0.027 ± 0.032. Q79V gave an abundance fitness of -0.236 ± 0.021. Q79W showed an abundance fitness of -0.233 ± 0.023. With Q79N the abundance fitness was -0.045 ± 0.033. In the case of Q79G, the abundance fitness is reported as 0.03 ± 0.019. Q79D gave an abundance fitness of -0.002 ± 0.028. Q79T showed an abundance fitness of 0.028 ± 0.024. Work on Q79I yielded an abundance fitness of -0.425 ± 0.039. Work on Q79Y yielded an abundance fitness of -0.09 ± 0.033. In the case of Q79L, the abundance fitness is reported as -0.165 ± 0.022. V77K gave an abundance fitness of -0.523 ± 0.033. V77W gave an abundance fitness of -0.981 ± 0.041. For V77C, the abundance fitness was -0.07 ± 0.029. For V77L, the abundance fitness was -0.105 ± 0.021. V77H showed an abundance fitness of -0.681 ± 0.056. With V77I the abundance fitness was -0.098 ± 0.032. For V77R, the abundance fitness was -0.728 ± 0.025. V77A showed an abundance fitness of -0.259 ± 0.023. With V77T the abundance fitness was -0.231 ± 0.028. In the case of V77D, the abundance fitness is reported as -0.658 ± 0.044. V77G showed an abundance fitness of -0.653 ± 0.023. V77Y gave an abundance fitness of -0.815 ± 0.078. Variant V77M has an abundance fitness of -0.475 ± 0.031. Work on V77S yielded an abundance fitness of -0.655 ± 0.03. T76L showed an abundance fitness of -0.163 ± 0.034. T76S gave an abundance fitness of -0.047 ± 0.032. Variant T76Y has an abundance fitness of -0.005 ± 0.059. Work on T76K yielded an abundance fitness of -0.036 ± 0.04. For T76N, the abundance fitness was 0.002 ± 0.074. In the case of T76E, the abundance fitness is reported as -0.025 ± 0.04. For T76I, the abundance fitness was -0.156 ± 0.052. In the case of T76W, the abundance fitness is reported as -0.18 ± 0.033. T76H showed an abundance fitness of -0.05 ± 0.062. T76P showed an abundance fitness of -0.639 ± 0.081. T76M gave an abundance fitness of -0.154 ± 0.04. In the case of T76C, the abundance fitness is reported as -0.088 ± 0.047. For T76R, the abundance fitness was -0.058 ± 0.029. For T76D, the abundance fitness was -0.073 ± 0.055. For T76A, the abundance fitness was -0.132 ± 0.033. For T76Q, the abundance fitness was -0.095 ± 0.039. With T76V the abundance fitness was -0.133 ± 0.031. Variant P80D has an abundance fitness of -0.28 ± 0.11. In the case of P80E, the abundance fitness is reported as -0.164 ± 0.053. P80Q showed an abundance fitness of 0 ± 0.05. P80I gave an abundance fitness of -0.413 ± 0.11. With P80W the abundance fitness was -0.403 ± 0.064. With P80R the abundance fitness was -0.146 ± 0.04. Variant P80T has an abundance fitness of -0.066 ± 0.033. P80M gave an abundance fitness of -0.181 ± 0.048. In the case of P80G, the abundance fitness is reported as -0.074 ± 0.036. For P80Y, the abundance fitness was -0.356 ± 0.07. Variant P80L has an abundance fitness of -0.387 ± 0.042. In the case of P80H, the abundance fitness is reported as -0.165 ± 0.066. For P80V, the abundance fitness was -0.23 ± 0.039. For P80A, the abundance fitness was -0.086 ± 0.033. P80N gave an abundance fitness of -0.058 ± 0.085. For P80S, the abundance fitness was -0.066 ± 0.028. In the case of P80K, the abundance fitness is reported as -0.138 ± 0.054. With P80C the abundance fitness was -0.157 ± 0.11. P80F gave an abundance fitness of -0.387 ± 0.13. In the case of L75Q, the abundance fitness is reported as -0.542 ± 0.096. Variant L75Y has an abundance fitness of -0.749 ± 0.13. Variant L75N has an abundance fitness of -0.773 ± 0.19. In the case of L75T, the abundance fitness is reported as -0.404 ± 0.063. L75V gave an abundance fitness of -0.097 ± 0.032. Variant L75S has an abundance fitness of -0.558 ± 0.051. Work on L75R yielded an abundance fitness of -0.631 ± 0.045. With L75W the abundance fitness was -0.629 ± 0.048. L75P gave an abundance fitness of -0.185 ± 0.075. I78Y gave an abundance fitness of -0.053 ± 0.033. In the case of I78K, the abundance fitness is reported as 0.036 ± 0.027. Variant I78E has an abundance fitness of 0.044 ± 0.023. For I78G, the abundance fitness was -0.079 ± 0.019. For I78W, the abundance fitness was -0.063 ± 0.022. Work on I78L yielded an abundance fitness of -0.024 ± 0.02. In the case of I78P, the abundance fitness is reported as -0.569 ± 0.032. I78R showed an abundance fitness of 0.005 ± 0.019. In the case of I78H, the abundance fitness is reported as -0.015 ± 0.036. I78Q gave an abundance fitness of 0.025 ± 0.024. I78S gave an abundance fitness of 0.01 ± 0.022. For I78C, the abundance fitness was -0.029 ± 0.027. In the case of I78M, the abundance fitness is reported as 0.022 ± 0.025. For I78F, the abundance fitness was -0.042 ± 0.031. For I78T, the abundance fitness was 0.037 ± 0.024. In the case of I78N, the abundance fitness is reported as -0.049 ± 0.033. Variant I78A has an abundance fitness of 0.028 ± 0.021.
